Data from the domain aggregation screens of Martell et al. (2025).

Test: soluble fraction after stress (log2 fold change); higher = more stays soluble; pooled small domains, quantitative proteomics
Conditions: stress: 50 degC
Procedure, shortened: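 Each library was heated to 50°C as a stress step. The libraries, made up of small protein domains, were pooled and analysed at high throughput by quantitative proteomics. The reported value is the base-two logarithm of the fold change in each protein's soluble amount after stress, taken as a measure of aggregation propensity. The higher the value, the more protein stays in solution.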

| Sequence | soluble fraction (log2) |
| --- | --- |
| HMDINNTNFSRDVDNLLQNEEFIKWRIFRTKEWEDYWENFRKENPHMEDALQEAISRFNAVK | 0.156 |
| HMALEGTLARVSVRIPESGVGEIIFSLGGVRRSEAARSVSGRAIPRGTEVVILSYERGIATVQPYEELLTN | 0.013 |
| HMNPTTDFFKLEGIDATRILVFDQVGRQVAQFSQPAQQMDIQALPAGVYALRIENADGQVYSARIVK | -0.16 |
| HMFGQRLRLARKRAGLSMQALAQRMSPPVTAQAISKYEADRMMPSSAVLVGLGKALGVSLDFLMGGQ | -0.835 |
| HMATKVNSGVTVRDLAELLGLSSADLIKKLMTMGEMATLTQTLTDDSVKAIADEYDRKIEIVSAAQ | -0.0488 |
| HMDFRQALNTSADSDANKVALLESIVKGKYVSSTVNLLRRVITLRRGRSIDATLAAYSHYVSIR | 0.313 |
| HMDAVLMEYDRLLALELTEDPDVYQDLLDKVREQSLGADGRVTDKYREKFDAVATRFDDYEDNYQW | -0.52 |
| HMNNTVLSSVKSINMFLDANGGDAGQAFRIYNNTNPDSNPTESTYIFKVAEDGNTFVKGYLNLNGTTL | 0.014 |
| HMIDAHTALLAKRLEAKGMLPLTDKSSAEEIYAEFGISKKAFKKALGALYKERLVRIGEDGVVWI | -1.27 |
| HMNPESRRSELIDAATKLFFSRGYTATSIRDILDAVDDRTASPSVFYYYFESKEAIYQAVLQRYTD | -2.03 |
| HMIPRNLEDLVRENQIGLVILKIVEIIGEDNIRDLDPETIYFINRILNELNLKKIRNNILSEALPPR | -1.31 |
| HMDDATIKVNIAAKFLNAGNNLFVDIDTTVLEGRVLLTGLVDTQEVRIDAVRLVWEVEGIREVINEIEIG | -4.89 |
| HMDTPVYYYVNGNGVRMRKDASLESDILILLYKGTKVEYVDVKGEWIKVKYNNEIGYIRNDLLSAEMPD | -0.0872 |
| HMNLLGERIREIRMEMGLTAKELAQRASVTPGYISQIEHDQIKPSMNVMMRIAEVLNVPMAALLM | -0.51 |
| HMVRVSELAIEPRLVVEETATGFVGAVVRYANGLIELEDRHGAVRTFPLGPGYLVDGRPVSLVKPT | -0.371 |
| HMVKTIINGEEKDFDAQDFQTFGDFLKKVIPEGQILKSLKINSKDVPIAFIDELKSATVDENITIEMELA | 0.429 |
| HMTMNLIEIGHVVGARRAELGLTQAQLAHLSGLSRQTVVGLEKGTLSDLGVNRVGQVMAVLGLDS | -0.51 |
| HMAEAETVKFVGNSLLLVSGAAKGERLSVYTVGGQHVLSADATKPVDVAALHSGVYVVRTTNGVITKIVK | -0.749 |
| HMGTSGLTIPRFVSLASGTVHMRAGPGVRYPITWIYKRLGTPLMVMAEHEFWRKVRDAEGTEGWMHRSLLS | -0.0684 |
| HMSISSIDFENLKSDELSDAQITQIYRQAQEQGLSIDELSSLAIARGMSPTEVAKLRSRFNSIP | 0.167 |
| HMPEKKKYGDFVSMTEEEYGKLVSEYGQEAAKRMVEILNNYKGATGKPYKSDYLAILNWVVKRIKEE | 0.0441 |
| HMTDVHFIDVPVSEGHPWIGLTVKDLNLPPGTLLVFLNHPGEKSTVPNGDTVLREGDVLVLGATAYAG | -0.0795 |
| HMEQISVPIFTNDELVTFARSYSGELGYKIDDMAVLALYNRISNIQRLDQATTLTEVKDIVDEAVAKSE | -0.0661 |
| HMKKPLEYIDVDKREDFPPVPNGMRYIHFYGGTKNYRAYIAPEDISRADFMEQYPEYVPEHN | 0.184 |
| HMEETIVFGQQKAINALSSDAGLSSNELDSYLKKRYKRPLYQLSKSEGAELIQGFQDGSLSKASIMDYVS | 0.169 |

| Sequence | soluble fraction (log2) |
| --- | --- |
| HMFEKIDINFADIHQLKGLPLNSEQINSIIEYRNQNGFIENIYDLKNVNGISIDKVHELKSYIFIIDV | -2.42 |
| HMNEDYFTIAGYASLRGVNIDTSKANMLGRKATKLSREYGYDIGKVTDTRFGKVNSYHLDILKSIFEF | -0.477 |
| HMVNHVGITVSNLERSIQFYEALTGKKIANQDTIGGKRMAQTQGLADTLIKYANLHLDNLNIDLLEYVE | -0.386 |
| HMENRLREVRDEIATRHGILPTVFINDRVLMNIHSKKPKDVSQLWQVDGISDEFIMKYGPEFIAEYKKKAK | 0.0216 |
| HMVLAEPLSERELDILRLLAAGDSNKEIAAVLYITEGTVKNHVTNILGKLDARDRTQAALRARELGL | -0.801 |
| HMRQQAFWALVPEERDVLDETGAPLFRIGPTAWALVIEDRGEVFVVRDEDGRVGYLHEVDGVTR | -1.52 |
| HMERLTVVPELLKRSLSEAQPLVTSARLRLEVSGGAPEDTSRAIVVGQKPPPGTRVQVGTTVIVTVQIQRP | -0.0498 |
| HMGNEEEEAIREAEEAIERVLEYGEPQELNPQNGFIRRLQHQLAEKSHLSSESVGVEPYRRVRISK | 0.185 |
| HMLDQSYYETANEIISRYPLEEKSLIPIIQDIQATYRYLPPDLLDYVAKKIGITETKAYSVASFYENFSF | -0.327 |
| HMDAVQAGKRVLIVDDLIATGGTAKAATDLIEKAGGTVVGFSFVMRLDGLDGLDKLDGKPSSSLIAMP | 0.237 |
| HMSSTSISFNDFQKYWLSNDIKSFQLREDKMTVQGSLKNGTAYETVVPSERLFQFIGQHPKD | 0.368 |
| HMATHGRRAVIELREKIVSGELPGGTRLFEVSLAETLDISRTPVREALSRLAEEGLLDRLPNGGFVVRR | -0.503 |
| HMLSSEQQQKLDSLSRKELEVAELVSHGATNKMIARTMNITERTVKAHLTAIFQKMNIPDRLSLAIFFRDL | -2.44 |
| HMYKNAFITYDNNLYYLGSDSKMAIGWQSIGGNTYYFRNWGGMITGKQVIDGKTYVFDEDGKLVQSPD | -1.12 |
| HMNELPSVIIMKNGRTRPYELQEISKDEEWLNQTIREHGIEPKDIFIAEFWDGRTAFILNDGRIVK | -0.555 |
| HMRMTLKNKVEDIVHILRKDKQTSLSAILGDNTDRIQTIVVFLAILELVKQHLIKTDQNANFGDINLFPED | -0.0677 |
| HMDEARLAVASNLIRLRTDAGMTQAELGEKLNYSDKTISKWERAEAIPDAFVLKQIGELFHVSVDFLLRTH | -0.37 |
| HMETFEKIKELAKKRGKALGQVEEDLGYGRNTLYKIKNSTPNAERIAEIANYFNVSTDYLLGRTDNPTIAK | 0.203 |
| HMDFFTAAPEEDEIGKRIDVYIAEYKEELSRSRVQKLIENGLVTVNGKAVKSNYKLRKGDILEVEIPDPE | 0.0151 |
| HMSAPNPGQMHSWTDTQGRTLQATFIKADATTVTLNWNGRIVPIPLANLNAASQKLARELASAS | 0.181 |
| HMQASPADLLSDRELEVFQLTGEWKTTRQIAQELHLSVKTIEYYREQIKRKLNLKSAAELTQHATAWVQRG | -0.361 |
| HMGQYLDAATVAAVYHAYHARNWTQATLAKELKVARPTLSNVLNGREAPSVELAARIRAFLGSPEP | -1.66 |
| HMSYGDLTGRTVVITGASKGIGARASRVLAQAGASVVGLARSVDELTALKYDLENDGLSFDFG | ≥ 0.62 |
| HMINLDYILELIFEKNNKTKDKTALIEEIRGVIRASVGNRAKESLIVDFINDTDLDTITDKASIIESFFEY | -3.51 |
| HMTISDTAYQAFLEQLGVGMVVEHKRFGEGVITGMPKGKIRITFEEGTKSFQARALAESGMLK | -0.59 |
